Consider three proteins from article PMC11808413 (FEBS letters, 2024).

Data set [1] concerns the molecule itself. Nature of the data set: non-reducing SDS-urea-PAGE (disulfide-linked oligomers); 5 uM desalted MBP-tagged lumenal segment, air-oxidized or with 2 mM diamide or H2O2 for 30 minutes at room temperature, non-reducing 8 % SDS-urea-PAGE; oxidants raise the share of dimers, and higher order oligomers appear for the wild type.
Data set [2] deals with the molecule itself. The experiment in a line: non-reducing gel (disulfide-linked oligomers); air-oxidized MBP-tagged LTO1 alone (Fig. 3, lane 2).

No end group written: not given here.

AQLIDTVHNLFIGVGVGLPSTVMECGDMIYRSTLPKSNGLTITA (domain or fragment, UniProt Q9S713 46-89, looked up, also: MBP-tagged) [MBP-tagged lumenal segment of Arabidopsis thaliana STN7 (AA 46-89), C65S]: the binding result in data set [1] is “binds”.

Take AQLIDTVHNLFIGVGVGLPCTVMESGDMIYRSTLPKSNGLTITA (domain or fragment, UniProt Q9S713 46-89, looked up, also: MBP-tagged) [MBP-tagged lumenal segment of Arabidopsis thaliana STN7 (AA 46-89), C70S]: in data set [1], the binding result was “binds”.

B1: MBP-tagged lumenal segment of Arabidopsis thaliana LTO1 (AA 251-376) (domain or fragment, UniProt Q8L540 251-376, looked up)
chain: SRSGDIELPYFRTEISSSSSPYAIALAKHLNSIGAKMYGAFWCSHCLEQKEMFGREAAKELNYVECFPDGYKKGTKILKACADAAIEGFPTWIINDKVLSGEIELAELAEMTGFSLDQANETNQLQ
On to B1, for which the binding result in data set [2] is “binds”.
